B1: CR1-10 (antibody, V domains shown)
VH: QVQLQESGPGLVKPSQTLSLTCSVSGGSIGGSSYYWSWIRHHPGKGLEWIGYINYRGITHYNAALKSRVSMSVETSQNHFSLQLTSVTAADTAVYYCARLTSDCSGGNCYQAFDYWGQGSLVSVS
VL: EIVLTQSPGTLSLSPGETATLSCRASQSVSSSYLAWYQQKPGQAPRLLIYGASGRATGIPDRFSGSGSGTDFTLTISRLEPEDFAVYYCQQYGRSGYTFGQGTKLEIK
B2: CR1-28 (antibody, V domains shown)
VH: QVQLVESGGGVVQPGRSLRLSCAASGFTFSSSAMHWVRQAPGKGLEWVAVIWSDGSNENYADSVKGRFTISRDNSKNTLYLQMSSLRAEDTAVYYCATDKTYVSGYTSTWYYFNYWGQGTLVTVS
VL: DIQMTQSPSTLSASVGDRVTITCRASQSIDNWLAWYQQKPGKAPKLLIYTASRLESGVPSRFSGSGSGTEFTLTISSLQPDDFATYYCQHRTFGQGTKVEIK
B3: CR1-07 (antibody, V domains shown)
VH: QVQLVESGGGVVHPGRSLRLSCAASGFTFGTSIMHWVRQAPGKGMQWVAQISHDESRKFYSDSVKGRFTVSRDNSKNTLFLEMSSLRIEDTAVYYCAKDLSPPYSYAWDIFQYWGQGSLVTVS
VL: DIVMTQSPESLAVSLGERATINCKSSQSVLYSSRSDNKDYLAWYQQKPGQSPKLLIYWASTRESGVPERFTGSGSGTDFTLSISSLQAEDVAVYYCQQYYSSPPTFGGGTKVELK

These binders were tested against T1, JUNV GPC MC2-TS (wild-type Junin virus glycoprotein complex) (Junin virus, MC2 strain, UniProt P26313, myristoyl on G2 | N-linked glycans | N-linked glycans) (assay: flow cytometry on cells). Conditions: one partner purified.
T1 construct: copies: 3 + 3 + 3
T1 sequence (P26313 2-58, chain 1 of 3): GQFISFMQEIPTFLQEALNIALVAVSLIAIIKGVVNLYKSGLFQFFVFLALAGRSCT
T1 sequence (P26313 59-251, chain 2 of 3): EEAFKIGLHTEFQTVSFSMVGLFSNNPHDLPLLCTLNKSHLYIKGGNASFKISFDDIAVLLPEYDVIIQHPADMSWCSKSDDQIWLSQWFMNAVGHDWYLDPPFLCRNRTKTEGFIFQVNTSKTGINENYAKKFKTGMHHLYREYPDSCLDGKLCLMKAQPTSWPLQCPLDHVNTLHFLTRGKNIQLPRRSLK
T1 sequence (P26313 252-485, chain 3 of 3): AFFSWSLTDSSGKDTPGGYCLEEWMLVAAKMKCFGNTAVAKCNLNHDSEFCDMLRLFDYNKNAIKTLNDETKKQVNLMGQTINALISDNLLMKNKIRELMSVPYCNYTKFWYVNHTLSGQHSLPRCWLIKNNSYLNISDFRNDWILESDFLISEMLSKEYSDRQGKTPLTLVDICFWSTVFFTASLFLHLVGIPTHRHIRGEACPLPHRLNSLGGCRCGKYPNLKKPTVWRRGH
B1: binds. B2: binds. B3: binds.
